± gives the uncertainty stated by the source.
Tested on: HEK293T
Assay: plasma membrane surface immunostaining intensity (anti-HA, deep receptor scanning) (arbitrary fluorescence units); higher = higher plasma membrane expression

Row | Sequence | plasma membrane surface immunostaining intensity (GPCR class: A) | other results
1 | MMGLTEGVFLILSGTQFTLGILVNCFIELVNGSSWFKTKRMSLSDFIITTLALLRIILLCIILTDSFLIEFSPNTHDSGIIMQIIDVSWTFTNHLSIWLATCLGVLYCLKIASFSHPTFLWLKWRVSRVMVWMLLGALLLSCGSTASLINEFKLYSVFRGIEATRNVTEHFRKKRSEYYLIHVLGTLWYLPPLIVSLASYSLLIFSLGRHTRQMLQNGTSSRDPTTEAHKRAIRIILSFFFLFLLYFLAFLIASFGNFLPKTKMAKMIGEVMTMFYPAGHSFILILGNSKLKQTFVVMLRCESGHLKPGSKGPIFS [TAS2R3] |  | plasma membrane surface immunostaining intensity (GPCR class: Taste): 135 ± 22
2 | MMIKKNASSEDFFILLGFSNWPQLEVVLFVVILIFYLMTLTGNLFIIILSYVDSHLHTPMYFFLSNLSFLDLCHTTSSIPQLLVNLRGPEKTISYAGCMVQLYFVLALGIAECVLLVVMSYDRYVAVCRPLHYTVLMHPRFCHLLAAASWVIGFTISALHSSFTFWVPLCGHRLVDHFFCEVPALLRLSCVDTHANELTLMVMSSIFVLIPLILILTAYGAIARAVLSMQSTTGLQKVFRTCGAHLMVVSLFFIPVMCMYLQPPSENSPDQGKFIALFYTVVTPSLNPLIYTLRNKHVKGAAKRLLGWEWGK [OR2J2] |  | plasma membrane surface immunostaining intensity (GPCR class: A (Olfactory)): 82.9 ± 16
3 | MNATGTPVAPESCQQLAAGGHSRLIVLHYNHSGRLAGRGGPEDGGLGALRGLSVAASCLVVLENLLVLAAITSHMRSRRWVYYCLVNITLSDLLTGAAYLANVLLSGARTFRLAPAQWFLREGLLFTALAASTFSLLFTAGERFATMVRPVAESGATKTSRVYGFIGLCWLLAALLGMLPLLGWNCLCAFDRCSSLLPLYSKRYILFCLVIFAGVLATIMGLYGAIFRLVQASGQKAPRPAARRKARRLLKTVLMILLAFLVCWGPLFGLLLADVFGSNLWAQEYLRGMDWILALAVLNSAVNPIIYSFRSREVCRAVLSFLCCGCLRLGMRGPGDCLARAVEAHSGASTTDSSLRPRDSFRGSRSLSFRMREPLSSISSVRSI [S1PR4] | 6452 ± 53 | 
4 | MNDDGKVNASSEGYFILVGFSNWPHLEVVIFVVVLIFYLMTLIGNLFIIILSYLDSHLHTPMYFFLSNLSFLDLCYTTSSIPQLLVNLWGPEKTISYAGCMIQLYFVLALGTTECVLLVVMSYDRYAAVCRPLHYTVLMHPRFCHLLAVASWVSGFTNSALHSSFTFWVPLCGHRQVDHFFCEVPALLRLSCVDTHVNELTLMITSSIFVLIPLILILTSYGAIVRAVLRMQSTTGLQKVFGTCGAHLMAVSLFFIPAMCIYLQPPSGNSQDQGKFIALFYTVVTPSLNPLIYTLRNKVVRGAVKRLMGWE [OR2J3] |  | plasma membrane surface immunostaining intensity (GPCR class: A (Olfactory)): 184 ± 45
5 | MNECHYDKHMDFFYNRSNTDTVDDWTGTKLVIVLCVGTFFCLFIFFSNSLVIAAVIKNRKFHFPFYYLLANLAAADFFAGIAYVFLMFNTGPVSKTLTVNRWFLRQGLLDSSLTASLTNLLVIAVERHMSIMRMRVHSNLTKKRVTLLILLVWAIAIFMGAVPTLGWNCLCNISACSSLAPIYSRSYLVFWTVSNLMAFLIMVVVYLRIYVYVKRKTNVLSPHTSGSISRRRTPMKLMKTVMTVLGAFVVCWTPGLVVLLLDGLNCRQCGVQHVKRWFLLLALLNSVVNPIIYSYKDEDMYGTMKKMICCFSQENPERRPSRIPSTVLSRSDTGSQYIEDSISQGAVCNKSTS [LPAR3] | 5905 ± 32 | 
6 | MNEDLKVNLSGLPRDYLDAAAAENISAAVSSRVPAVEPEPELVVNPWDIVLCTSGTLISCENAIVVLIIFHNPSLRAPMFLLIGSLALADLLAGIGLITNFVFAYLLQSEATKLVTIGLIVASFSASVCSLLAITVDRYLSLYYALTYHSERTVTFTYVMLVMLWGTSICLGLLPVMGWNCLRDESTCSVVRPLTKNNAAILSVSFLFMFALMLQLYIQICKIVMRHAHQIALQHHFLATSHYVTTRKGVSTLAIILGTFAACWMPFTLYSLIADYTYPSIYTYATLLPATYNSIINPVIYAFRNQEIQKALCLICCGCIPSSLAQRARSPSDV [GPR12] | 1260 ± 200 | 
7 | MNGDHMVLGSSVTDKKAIILVTILLLLRLVAIAGNGFITAALGVEWVLRRMLLPCDKLLVSLGASRFCLQSVVMGKTIYVFLHPMAFPYNPVLQFLAFQWDFLNAATLWSSTWLSVFYCVKIATFTHPVFFWLKHKLSGWLPWMLFSSVGLSSFTTILFFIGNHRMYQNYLRNHLQPWNVTGDSIRSYCEKFYLFPLKMITWTMPTAVFFICMILLITSLGRHRKKALLTTSGFREPSVQAHIKALLALLSFAMLFISYFLSLVFSAAGIFPPLDFKFWVWESVIYLCAAVHPIILLFSNCRLRAVLKSRRSSRCGTP [TAS2R60] |  | plasma membrane surface immunostaining intensity (GPCR class: Taste): 137 ± 36
8 | MNPDLDTGHNTSAPAHWGELKNANFTGPNQTSSNSTLPQLDITRAISVGLVLGAFILFAIVGNILVILSVACNRHLRTPTNYFIVNLAMADLLLSFTVLPFSAALEVLGYWVLGRIFCDIWAAVDVLCCTASILSLCAISIDRYIGVRYSLQYPTLVTRRKAILALLSVWVLSTVISIGPLLGWKEPAPNDDKECGVTEEPFYALFSSLGSFYIPLAVILVMYCRVYIVAKRTTKNLEAGVMKEMSNSKELTLRIHSKNFHEDTLSSTKAKGHNPRSSIAVKLFKFSREKKAAKTLGIVVGMFILCWLPFFIALPLGSLFSTLKPPDAVFKVVFWLGYFNSCLNPIIYPCSSKEFKRAFVRILGCQCRGRGRRRRRRRRRLGGCAYTYRPWTRGGSLERSQSRKDSLDDSGSCLSGSQRTLPSASPSPGYLGRGAPPPVELCAFPEWKAPGALLSLPAPEPPGRRGRHDSGPLFTFKLLTEPESPGTDGGASNGGCEAAADVANGQPGFKSNMPLAPGQF [ADRA1B] | 6200 ± 240 | 
9 | MNPENWTQVTSFVLLGFPSSHLIQFLVFLGLMVTYIVTATGKLLIIVLSWIDQRLHIQMYFFLRNFSFLELLLVTVVVPKMLVVILTGDHTISFVSCIIQSYLYFFLGTTDFFLLAVMSLDRYLAICRPLRYETLMNGHVCSQLVLASWLAGFLWVLCPTVLMASLPFCGPNGIDHFFRDSWPLLRLSCGDTHLLKLVAFMLSTLVLLGSLALTSVSYACILATVLRAPTAAERRKAFSTCASHLTVVVIIYGSSIFLYIRMSEAQSKLLNKGASVLSCIITPLLNPFIFTLRNDKVQQALREALGWPRLTAVMKLRVTSQRK [OR6T1] |  | plasma membrane surface immunostaining intensity (GPCR class: A (Olfactory)): 112 ± 19
10 | MNPPSGPRVPPSPTQEPSCMATPAPPSWWDSSQSSISSLGRLPSISPTAPGTWAAAWVPLPTVDVPDHAHYTLGTVILLVGLTGMLGNLTVIYTFCRSRSLRTPANMFIINLAVSDFLMSFTQAPVFFTSSLYKQWLFGETGCEFYAFCGALFGISSMITLTAIALDRYLVITRPLATFGVASKRRAAFVLLGVWLYALAWSLPPFFGWSAYVPEGLLTSCSWDYMSFTPAVRAYTMLLCCFVFFLPLLIIIYCYIFIFRAIRETGRALQTFGACKGNGESLWQRQRLQSECKMAKIMLLVILLFVLSWAPYSAVALVAFAGYAHVLTPYMSSVPAVIAKASAIHNPIIYAITHPKYRVAIAQHLPCLGVLLGVSRRHSRPYPSYRSTHRSTLTSHTSNLSWISIRRRQESLGSESEVGWTHMEAAAVWGAAQQANGRSLYGQGLEDLEAKAPPRPQGHEAETPGKTKGLIPSQDPRM [OPN4] | 519 ± 36 | 
11 | MNPTDIADTTLDESIYSNYYLYESIPKPCTKEGIKAFGELFLPPLYSLVFVFGLLGNSVVVLVLFKYKRLRSMTDVYLLNLAISDLLFVFSLPFWGYYAADQWVFGLGLCKMISWMYLVGFYSGIFFVMLMSIDRYLAIVHAVFSLRARTLTYGVITSLATWSVAVFASLPGFLFSTCYTERNHTYCKTKYSLNSTTWKVLSSLEINILGLVIPLGIMLFCYSMIIRTLQHCKNEKKNKAVKMIFAVVVLFLGFWTPYNIVLFLETLVELEVLQDCTFERYLDYAIQATETLAFVHCCLNPIIYFFLGEKFRKYILQLFKTCRGLFVLCQYCGLLQIYSADTPSSSYTQSTMDHDLHDAL [CCR4] | 186 ± 14 | 
12 | MNSENLTRAAVAPAEFVLLGITNRWDLRVALFLTCLPVYLVSLLGNMGMALLIRMDARLHTPMYFFLANLSLLDACYSSAIGPKMLVDLLLPRATIPYTACALQMFVFAGLADTECCLLAAMAYDRYVAIRNPLLYTTAMSQRLCLALLGASGLGGAVSAFVHTTLTFRLSFCRSRKINSFFCDIPPLLAISCSDTSLNELLLFAICGFIQTATVLAITVSYGFIAGAVIHMRSVEGSRRAASTGGSHLTAVAMMYGTLIFMYLRPSSSYALDTDKMASVFYTLVIPSLNPLIYSLRNKEVKEALRQTWSRFHCPGQGSQ [OR5C1] |  | plasma membrane surface immunostaining intensity (GPCR class: A (Olfactory)): 177 ± 14
13 | MNTSAPPAVSPNITVLAPGKGPWQVAFIGITTGLLSLATVTGNLLVLISFKVNTELKTVNNYFLLSLACADLIIGTFSMNLYTTYLLMGHWALGTLACDLWLALDYVASNASVMNLLLISFDRYFSVTRPLSYRAKRTPRRAALMIGLAWLVSFVLWAPAILFWQYLVGERTVLAGQCYIQFLSQPIITFGTAMAAFYLPVTVMCTLYWRIYRETENRARELAALQGSETPGKGGGSSSSSERSQPGAEGSPETPPGRCCRCCRAPRLLQAYSWKEEEEEDEGSMESLTSSEGEEPGSEVVIKMPMVDPEAQAPTKQPPRSSPNTVKRPTKKGRDRAGKGQKPRGKEQLAKRKTFSLVKEKKAARTLSAILLAFILTWTPYNIMVLVSTFCKDCVPETLWELGYWLCYVNSTINPMCYALCNKAFRDTFRLLLLCRWDKRRWRKIPKRPGSVHRTPSRQC [CHRM1] | 2530 ± 130 | 
14 | MNVSGCPGAGNASQAGGGGGWHPEAVIVPLLFALIFLVGTVGNTLVLAVLLRGGQAVSTTNLFILNLGVADLCFILCCVPFQATIYTLDGWVFGSLLCKAVHFLIFLTMHASSFTLAAVSLDRYLAIRYPLHSRELRTPRNALAAIGLIWGLSLLFSGPYLSYYRQSQLANLTVCHPAWSAPRRRAMDICTFVFSYLLPVLVLGLTYARTLRYLWRAVDPVAAGSGARRAKRKVTRMILIVAALFCLCWMPHHALILCVWFGQFPLTRATYALRILSHLVSYANSCVNPIVYALVSKHFRKGFRTICAGLLGRAPGRASGRVCAAARGTHSGSVLERESSDLLHMSEAAGALRPCPGASQPCILEPCPGPSWQGPKAGDSILTVDVA [GALR2] | 2060 ± 420 | 
15 | MNYPLTLEMDLENLEDLFWELDRLDNYNDTSLVENHLCPATEGPLMASFKAVFVPVAYSLIFLLGVIGNVLVLVILERHRQTRSSTETFLFHLAVADLLLVFILPFAVAEGSVGWVLGTFLCKTVIALHKVNFYCSSLLLACIAVDRYLAIVHAVHAYRHRRLLSIHITCGTIWLVGFLLALPEILFAKVSQGHHNNSLPRCTFSQENQAETHAWFTSRFLYHVAGFLLPMLVMGWCYVGVVHRLRQAQRRPQRQKAVRVAILVTSIFFLCWSPYHIVIFLDTLARLKAVDNTCKLNGSLPVAITMCEFLGLAHCCLNPMLYTFAGVKFRSDLSRLLTKLGCTGPASLCQLFPSWRRSSLSESENATSLTTF [CXCR5] | 630 ± 74 | 
16 | MPANFTEGSFDSSGTGQTLDSSPVACTETVTFTEVVEGKEWGSFYYSFKTEQLITLWVLFVFTIVGNSVVLFSTWRRKKKSRMTFFVTQLAITDSFTGLVNILTDINWRFTGDFTAPDLVCRVVRYLQVVLLYASTYVLVSLSIDRYHAIVYPMKFLQGEKQARVLIVIAWSLSFLFSIPTLIIFGKRTLSNGEVQCWALWPDDSYWTPYMTIVAFLVYFIPLTIISIMYGIVIRTIWIKSKTYETVISNCSDGKLCSSYNRGLISKAKIKAIKYSIIIILAFICCWSPYFLFDILDNFNLLPDTQERFYASVIIQNLPALNSAINPLIYCVFSSSISFPCREQRSQDSRMTFRERTERHEMQILSKPEFI [NPSR1] | 457 ± 42 | 
